# Experimental data taken from US20190263918A1 (SHANGHAI JIAO TONG UNIVERSITY SCHOOL OF MEDICINE, published 2019).
# T1: human FcγRIIA-R131 extracellular domain protein (human, UniProt P12318 34-217)
# T1 construct: extracellular domain; SPR: His-tagged, immobilised; ELISA: biotinylated; also called hFcγRIIA-R131; CD32a
# T1 sequence (looked up): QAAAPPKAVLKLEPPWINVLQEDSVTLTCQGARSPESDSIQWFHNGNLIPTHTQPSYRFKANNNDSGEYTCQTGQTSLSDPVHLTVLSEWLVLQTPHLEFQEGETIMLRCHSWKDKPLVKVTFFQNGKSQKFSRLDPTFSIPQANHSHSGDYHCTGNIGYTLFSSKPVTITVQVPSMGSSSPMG
# B1: human FcγRIIB extracellular domain protein (receptor, UniProt P31994 43-217, looked up)
# chain: TPAAPPKAVLKLEPQWINVLQEDSVTLTCRGTHSPESDSIQWFHNGNLIPTHTQPSYRFKANNNDSGEYTCQTGQTSLSDPVHLTVLSEWLVLQTPHLEFQEGETIVLRCHSWKDKPLVKVTFFQNGKSKKFSRSDPNFSIPQANHSHSGDYHCTGNIGYTLYSSKPVTITVQAP
# notes: extracellular domain; SPR: His-tagged, immobilised; ELISA: biotinylated; also called hFcγRIIB; CD32b
# Legend:
# [1] = biological target: T1, human FcγRIIA-R131 extracellular domain …; experiment: ELISA: plate coated with the anti-human CD40 antibody, biotinylated human FcγRIIA-R131 extracellular domain, streptavidin-HRP, A650 [upper FcγRIIA-R131 panel]
# Protocol: (§1) The ELISA plate was coated with 100 μL antibody at an appropriate concentration overnight, supernatant being discarded. The plate was blocked with 1% BSA in PBS for 2 hours, followed by washing with PBST (PBS with 0.05% Tween 20). Then, biotinylated FcγR extracellular domain protein (Sino Biologic Inc., Beijing China) at a concentration as appropriate was added and incubated at room temperature for 1 hour, supernatant being discarded, followed by PBST wash. Streptavidin-HRP (BD Biosciences) was added and incubated at room temperature for 1 hour for detection of biotin protein. After removal of supernatant, developing solution was added to react for 20-40 minutes, and absorbance was determined at 650 nm (A650).
# [2] = biological target: B1; experiment: SPR (refers to Table 4, Fc fragments)
# [3] = biological target: B1; experiment: SPR; fold against G1
# [4] = biological target: T2, human FcγRI extracellular domain protein (human, UniProt P12314 16-292); experiment: SPR, Biacore T100, FcγR extracellular domain immobilised
# T2 construct: extracellular domain; also called hFcγRI; CD64
# [5] = biological target: T3, human FcγRIIIA-F158 extracellular domain protein (human, UniProt P08637 17-208); experiment: as above
# T3 construct: extracellular domain; SPR: His-tagged, immobilised; also called hFcγRIIIA-F158; CD16a
# [6] = biological target: T2, human FcγRI extracellular domain protein; experiment: SPR, Biacore T100, FcγR extracellular domain immobilised, 1:1 model
# [7] = biological target: T1, human FcγRIIA-R131 extracellular domain …; experiment: as above
# [8] = biological target: B1; experiment: as above
# [9] = biological target: B1; experiment: SPR; [lower of KD(hFcγRIIA-R131) and KD(hFcγRIIIA-F158)]/KD(hFcγRIIB)
# [10] = biological target: Fc fragment of heavy chain constant region G1 (hIgG1) (human, UniProt P0DOX5 234-449 = IgG part); experiment: SPR, Biacore T100, FcγR extracellular domain immobilised, 1:1 model
# [11] = biological target: T1, human FcγRIIA-R131 extracellular domain …; experiment: ELISA, coated antibody, biotinylated FcγR extracellular domain
# Protocol: as §1
# T2 sequence (P12314 16-292): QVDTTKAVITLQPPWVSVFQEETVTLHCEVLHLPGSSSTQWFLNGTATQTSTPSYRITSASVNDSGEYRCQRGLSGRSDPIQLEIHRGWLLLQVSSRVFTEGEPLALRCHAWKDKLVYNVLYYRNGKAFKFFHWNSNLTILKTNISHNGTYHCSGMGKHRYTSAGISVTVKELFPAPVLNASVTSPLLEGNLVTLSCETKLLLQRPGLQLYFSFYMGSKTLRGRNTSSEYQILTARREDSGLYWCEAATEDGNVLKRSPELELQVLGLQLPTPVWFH
# T3 sequence (P08637 17-208): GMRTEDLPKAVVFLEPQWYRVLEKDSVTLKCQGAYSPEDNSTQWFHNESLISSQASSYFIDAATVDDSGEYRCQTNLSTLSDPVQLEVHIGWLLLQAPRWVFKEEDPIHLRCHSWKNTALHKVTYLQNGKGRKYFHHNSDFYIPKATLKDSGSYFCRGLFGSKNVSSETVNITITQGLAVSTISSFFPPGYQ
binder,measurement,setting,value
"Anti-hCD40-hIgG2(V11) (antibody, Human anti-human CD40 antibody, heavy chain constant region V11(H2), i.e. JAC1; also called anti-human CD40 antibody comprising JAC1) heavy: not shown light: DIQMTQSPSSVSASVGDRVTITCRASQGIYSWLAWYQQKPGKAPNLLIYTASTLQSGVPSRFSGSGSGTDFTLTISSLQPEDFATYYCQQANIFPLTFGGGTKVEIKRTVAAPSVFIFPPSDEQLKSGTASVVCLLNNFYPREAKVQWKVDNALQSGNSQESVTEQDSKDSTYSLSSTLTLSKADYEKHKVYACEVTHQGLSSPVTKSFNRGEC",binding result,[1],binds
"Anti-mCD40-hIgG2-GASDALIE (antibody, Chimeric anti-murine CD40 antibody) heavy: EVQLVESDGGLVQPGRSLKLPCAASGFTFSDYYMAWVRQAPTKGLEWVASISYDGSSTYYRDSVKGRFTISRDNAKSTLYLQMDSLRSEDTATYYCGRHSSYFDYWGQGVMVTVSSASTKGPSVFPLAPCSRSTSESTAALGCLVKDYFPEPVTVSWNSGALTSGVHTFPAVLQSSGLYSLSSVVTVPSSNFGTQTYTCNVDHKPSNTKVDKTVERKCCVECPPCPAPELLAGPDVFLFPPKPKDTLMISRTPEVTCVVVDVSHEDPEVKFNWYVDGVEVHNAKTKPREEQYNSTYRVVSVLTVLHQDWLNGKEYKCKVSNKALPLPEEKTISKAKGQPREPQVYTLPPSRDELTKNQVSLTCLVKGFYPSDIAVEWESNGQPENNYKTTPPVLDSDGSFFLYSKLTVDKSRWQQGNVFSCSVMHEALHNHYTQKSLSLSPGK light: DTVLTQSPALAVSPGERVTISCRASDSVSTLMHWYQQKPGQQPKLLIYLASHLESGVPARFSGSGSGTDFTLTIDPVEADDTATYYCQQSWNDPWTFGGGTKLELKRTVAAPSVFIFPPSDEQLKSGTASVVCLLNNFYPREAKVQWKVDNALQSGNSQESVTEQDSKDSTYSLSSTLTLSKADYEKHKVYACEVTHQGLSSPVTKSFNRGEC",binding result,[2],binds
Fc fragment of heavy chain constant region G2 (hIgG2) (other) PPVAGPSVFLFPPKPKDTLMISRTPEVTCVVVDVSHEDPEVQFNWYVDGVEVHNAKTKPREEQFNSTFRVVSVLTVVHQDWLNGKEYKCKVSNKGLPAPIEKTISKTKGQPREPQVYTLPPSREEMTKNQVSLTCLVKGFYPSDIAVEWESNGQPENNYKTTPPMLDSDGSFFLYSKLTVDKSRWQQGNVFSCSVMHEALHNHYTQKSLSLSPGK,folds of increase in hFcγRIIB binding,[3],< 0.4 fold
same,binding result,[4],no binding
Fc fragment of heavy chain constant region V9(H1) (hIgG1 G237D/P238D/P271G/A330R) (other) PELLGDDSVFLFPPKPKDTLMISRTPEVTCVVVDVSHEDGEVKFNWYVDGVEVHNAKTKPREEQYNSTYRVVSVLTVLHQDWLNGKEYKCKVSNKALPRPIEKTISKAKGQPREPQVYTLPPSRDELTKNQVSLTCLVKGFYPSDIAVEWESNGQPENNYKTTPPVLDSDGSFFLYSKLTVDKSRWQQGNVFSCSVMHEALHNHYTQKSLSLSPGK,binding result,[5],no binding
same,Kd,[6],580 nM
same,Kd,[7],4100 nM
same,Kd,[8],94 nM
Fc fragment of heavy chain constant region V11(H1) (hIgG1 G237D/P238D/H268D/P271G/A330R) (other) PELLGDDSVFLFPPKPKDTLMISRTPEVTCVVVDVSDEDGEVKFNWYVDGVEVHNAKTKPREEQYNSTYRVVSVLTVLHQDWLNGKEYKCKVSNKALPRPIEKTISKAKGQPREPQVYTLPPSRDELTKNQVSLTCLVKGFYPSDIAVEWESNGQPENNYKTTPPVLDSDGSFFLYSKLTVDKSRWQQGNVFSCSVMHEALHNHYTQKSLSLSPGK,folds of increase in hFcγRIIB binding,[3],94 fold
same,binding result,[5],no binding
same,Kd,[6],230 nM
same,Kd,[7],3800 nM
same,Kd,[8],14 nM
same,I/A ratio,[9],271
B1,Kd,[10],3000 nM
"Anti-mCD40-hIgG2-NA (antibody, Chimeric anti-murine CD40 antibody, heavy chain constant region G2-NA (N297A)) heavy: EVQLVESDGGLVQPGRSLKLPCAASGFTFSDYYMAWVRQAPTKGLEWVASISYDGSSTYYRDSVKGRFTISRDNAKSTLYLQMDSLRSEDTATYYCGRHSSYFDYWGQGVMVTVSSASTKGPSVFPLAPCSRSTSESTAALGCLVKDYFPEPVTVSWNSGALTSGVHTFPAVLQSSGLYSLSSVVTVPSSNFGTQTYTCNVDHKPSNTKVDKTVERKCCVECPPCPAPPVAGPSVFLFPPKPKDTLMISRTPEVTCVVVDVSHEDPEVQFNWYVDGVEVHNAKTKPREEQFASTFRVVSVLTVVHQDWLNGKEYKCKVSNKGLPAPIEKTISKTKGQPREPQVYTLPPSREEMTKNQVSLTCLVKGFYPSDIAVEWESNGQPENNYKTTPPMLDSDGSFFLYSKLTVDKSRWQQGNVFSCSVMHEALHNHYTQKSLSLSPGK light: DTVLTQSPALAVSPGERVTISCRASDSVSTLMHWYQQKPGQQPKLLIYLASHLESGVPARFSGSGSGTDFTLTIDPVEADDTATYYCQQSWNDPWTFGGGTKLELKRTVAAPSVFIFPPSDEQLKSGTASVVCLLNNFYPREAKVQWKVDNALQSGNSQESVTEQDSKDSTYSLSSTLTLSKADYEKHKVYACEVTHQGLSSPVTKSFNRGEC",binding result,[11],no binding
